Experimental data: patent US20210293825

B1: purified recombinant RAF1 (Raf-1, EMD Millipore #17-360) (protein)
chain: SQPKTPVPAQRERAPVSGTQEKNKIRPRGQRDSSYYWEIEASEVMLSTRIGSGSFGTVYKGKWHGDVAVKILKVVDPTPEQFQAFRNEVAVLRKTRHVNILLFMGYMTKDNLAIVTQWCEGSSLYKHLHVQETKFQMFQLIDIARQTAQGMDYLHAKNIIHRDMKSNNIFLHEGLTVKIGDFGLATVKSRWSGSQQVEQPTGSVLWMAPEVIRMQDNNPFSFQSDVYSYGIVLYELMTGELPYSHINNRDQIIFMVGRGYASPDLSKLYKNCPKAMKRLVADCVKKVKEERPLFPQILSSIELLQHSLPKINRSASEPSLHRAAHTEDINACTLTTSPRLPVF
B2: purified recombinant SGK3 (Thermo Scientific #PV3859) (protein)
chain: MQRDHTMDYKESCPSVSIPSSDEHREKKKRFTVYKVLVSVGRSEWFVFRRYAEFDKLYNTLKKQFPAMALKIPAKRIFGDNFDPDFIKQRRAGLNEFIQNLVRYPELYNHPDVRAFLQMDSPKHQSDPSEDEDERSSQKLHSTSQNINLGPSGNPHAKPTDFDFLKVIGKGSFGKVLLAKRKLDGKFYAVKVLQKKIVLNRKEQKHIMAERNVLLKNVKHPFLVGLHYSFQTTEKLYFVLDFVNGGELFFHLQRERSFPEHRARFYAAEIASALGYLHSIKIVYRDLKPENILLDSVGHVVLTDFGLCKEGIAISDTTTTFCGTPEYLAPEVIRKQPYDNTVDWWCLGAVLYEMLYGLPPFYCRDVAEMYDNILHKPLSLRPGVSLTAWSILEELLEKDRQNRLGAKEDFLEIQNHPFFESLSWADLVQKKIPPPFNPNVAGPDDIRNFDTAFTEETVPYSVCVSSDYSIVNASVLEADDAFVGFSYAPPSEDLFL

Molecular target: HSP90β/CDC37 heterocomplex of purified recombinant HSP90β and CDC37 (in vitro kinase assay), P08238
Sequence (P08238 whole entry, chain 1 of 2): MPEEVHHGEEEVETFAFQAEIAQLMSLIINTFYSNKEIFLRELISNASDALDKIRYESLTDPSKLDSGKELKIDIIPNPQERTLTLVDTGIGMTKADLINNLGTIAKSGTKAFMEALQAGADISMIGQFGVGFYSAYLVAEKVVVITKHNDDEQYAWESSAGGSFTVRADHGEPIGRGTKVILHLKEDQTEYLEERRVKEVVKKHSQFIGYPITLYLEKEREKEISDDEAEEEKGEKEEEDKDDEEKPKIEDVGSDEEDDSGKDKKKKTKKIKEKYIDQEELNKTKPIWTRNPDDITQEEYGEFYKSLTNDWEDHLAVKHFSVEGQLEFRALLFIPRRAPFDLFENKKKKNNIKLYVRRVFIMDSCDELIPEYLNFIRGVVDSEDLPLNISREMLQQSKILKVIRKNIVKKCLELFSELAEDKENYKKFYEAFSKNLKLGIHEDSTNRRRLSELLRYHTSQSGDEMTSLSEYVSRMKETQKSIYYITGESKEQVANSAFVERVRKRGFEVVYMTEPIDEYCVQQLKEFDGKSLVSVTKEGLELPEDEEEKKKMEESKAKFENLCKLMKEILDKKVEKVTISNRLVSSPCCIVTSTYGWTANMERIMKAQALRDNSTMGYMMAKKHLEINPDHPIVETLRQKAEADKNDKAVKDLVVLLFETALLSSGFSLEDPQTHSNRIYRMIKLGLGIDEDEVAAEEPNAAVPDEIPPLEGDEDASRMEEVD
Sequence (chain, as listed by the source, chain 2 of 2): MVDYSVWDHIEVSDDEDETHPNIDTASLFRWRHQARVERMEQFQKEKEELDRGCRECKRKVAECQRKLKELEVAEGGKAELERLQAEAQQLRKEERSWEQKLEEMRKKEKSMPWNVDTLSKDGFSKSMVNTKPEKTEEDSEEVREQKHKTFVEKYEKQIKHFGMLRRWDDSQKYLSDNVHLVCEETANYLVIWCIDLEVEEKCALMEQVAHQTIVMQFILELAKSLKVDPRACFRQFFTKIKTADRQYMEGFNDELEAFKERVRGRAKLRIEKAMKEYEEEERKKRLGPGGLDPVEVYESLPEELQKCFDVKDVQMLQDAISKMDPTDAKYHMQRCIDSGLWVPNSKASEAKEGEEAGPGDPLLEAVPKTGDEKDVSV

Protein | RAF1 activity (autophosphorylation of RAF1 in an in vitro kinase assay, Western blot) | phosphorylation of HSP90β (in vitro kinase assay, Western blot)
B1 | In the absence of CDC37/HSP90β heterocomplex, RAF1 activity was much lower | –
B2 | – | SGK3 increased phosphorylation of HSP90β, and that phosphorylation was further increased in the presence of KBU2046
